Measured values published in the DeepSol protein solubility set.

test: soluble on expression in E. coli; label from the status in PepcDB or PDB records

| Sequence | soluble on expression in E. coli |
| --- | --- |
| MDLKSTKKTWKIPSFNQMWGKITSHIGVWFGLEEAERPMRASCSLSMIHHPQLTAVRSSKSSENLHRITTMSPQRIQDVDGSPSTRKPSSSIFTLRRSRNKEKKYKNNGGGGSTKSPISKNGTNEMTQSWHSNHVNGASSGSGSGSTPEHHNKNIFSFLSRQSRSRSNNPSETMSTVPLNKNSPSMPPPPSSNTVADFTHLRRRRPRSAHYDPNTITLPAKEEVTPQDVNDLYKRIDKLGEGSYATVYKCESKLDGSIVALKEIKLQFQEGLPFTAIREASLLRNLRHANIVSLHDIFYQHHQLTFVFEYMKMDLSKYLEQNVYGLDSIDIKLLLFQLLRGLDFCHRKKILHRDLKPQNLLLDEDGVLKLADFGLARAKSVPSRTYSHEVVTLWYRPPDVLMGSTDYSTSLDMWGVGCIFAEICTGAALFPGSKDSHYPGTKDQLDMIFSIRGTPDEKKWPEVKTLPGYTPELFPRYRELSFIAVNPMFTKILKTGQELLGMLLQLRPESRVSAASAMLHPYFASFPREVHLLAPSQSIFRLKELKDLRSL | not soluble |
| KIIVKHVTVIGGGLMGAGIAQVAAATGHTVVLVDQTEDILAKSKKGIEESLRKVAKKKFAENPKAGDEFVAKTLSTIATSTDAASVVHSTDLVVEAIVENLKVKNELFKRLDKRAAEHTIFASNTSSLQITSIANATTRQDRFAGLHFFNPVPVMKLVEVIKTPMTSQKTFESLVDFSKALGKHPVSCKDTPGFIVNRLLVPYLMEAIRLYERGDASKEDIDTAMKLGAGYPMGPFELLDYVGLDTTKFIVDGWHEMDAENPLHQPSPSLNKLVAENKFGKKTGEGFYKYKAA | soluble |
| MADEIFKAFIGGLPYDSIATDIETILKHCKFTDEELKKFDIHLVHDRDSGSFKGFAYVTFENEQQMNTAISGLNGADFGNRVLKVNRAQQRDRSDRGGGRGGRGGNFGDRGGRGRGAGGFRRGGEGGRFNEGERRGGFGGGGHRGGYRQRRESEEQHKAEETSDPSAPPAERPRLNLKPRTTDAAEIEARKKQEEEETKRRQEKLFQ | not soluble |
| MRNKILSDGAKELSYEIREIVKKADLINKNGQSIVFENIGDPIQKNNVVPQWIRETISNLTLDNKSYSYSPSKGILKTRQFLAELNNKKAGAQITADDILFFNGLGDAIAKVYQFISRSSRVIGPSPAYSTHSSAEAAHASQDPITYKLDPNNHWYPDLDDLYNKVKYNPNIIGILIINPDNPTGMVYPLETLKRIVEIAREFNLFLLSDEIYLNITYNGARAYSLAEVIEDVPGIAMKGISKEFPWPGSRCGWMEYYNRGKDQDFDKFCSALDNAKMIEVCSTTLPQLAIPVIMSDPRYLPYREELNSKIGKRSKIIAGILGQIPELMFNETYGAFYNTIVFKDGVLNDKQTLPIENAANKALVEKWISEPNVDLDKRFVYYLLAAKGICVVPISSFCSDLKGFRVTLLEENEELLEQTFTSIRDAIRLYLKS | not soluble |
| MADPNWAYAPPTNYYADHSIAKPIMISGGHPSQDQGHSPKSESFGQSVTTAFNGMVDNLVGSPSSSVQQRNYFTTTPFPISRSPNDRNDDKIMGNGSYGVPIPIPQDGVPQGTPDFQMTPFLQQGGHLIGGSPNGPVQVSGNWYSGGAGIFSTMQQADPSNGMPGMAAEFVNNENGMPGPNGMHQQAMISGSPPFPYQNMMNLTTSFGAMGLGPQQIQQRDPQMFQQPILHEPIQGMAQNGFGQQVFFTQMQNQQHPQGQAQQQLQQLAQQHQQQQNSQQFFGQGPNGMGNGGVMNDWSQRSFGMPQQQAQQNGLPPNFSQNPPRRRGPEDPNGQTPKTLQDIKNNVIEFAKDQHGSRFIQQKLERASLRDKAAIFTPVLENAEELMTDVFGNYVIQKFFEFGNNEQRNQLVGTIRGNVMKLALQMYGCRVIQKALEYVEEKYQHEILGEMEGQVLKCVKDQNGNHVIQKVIERVEPERLQFIIDAFTKNNSDNVYTLSVHPYGCRVIQRVLEYCNEEQKQPVLDALQIHLKQLVLDQYGNYVIQHVIEHGSPSDKEQIVQDVISDDLLKFAQHKFASNVIEKCLTFGGHAERNLIIDKVCGDPNDPSPPLLQMMKDPFANYVVQKMLDVADPQHRKKITLTIKPHIATLRKYNFGKHILLKLEKYFAKQAPANSSNSSSNDQIYEHSPFDIPLGADFSNHPF | not soluble |
| MYKIVNNDQNKRLVIAKSKAQSLRKTFLHSCLPKMPLSQPWSHSFEICQEHNTQKRISYSRLHRSIGRLRVFLTDDNSILKSTNKFIKILIQQIAFHNLFRWYCRWNDEFQVDEHLDHFCRKDKAQEVFNVSWLVLKFNVFKLYTQKFLYTYSFITIFRLSFRFPTTFRSIF | not soluble |
| VDQVFVVGHKNLDMDALGSAVGMQLFASNVIENSYALYDEEQMSPDIERAVSFIEKEGVTKLLSVKDAMGMVTNRSLLILVDHSKTALTLSKEFYDLFTQTIVIDHHRRDQDFPDNAVITYIESGASSASELVTELIQFQNSKKNRLSRMQASVLMAGMMLDTKNFTSRVTSRTFDVASYLRTRGSDSIAIQEIAATDF | not soluble |
| MEISNRLKSISEVMDRCEIAADIGTDHAYLPIYLIKNNLCKRFIASDVNAGPLKKAINNINKYKLEDKIECRLGSGLNVLKLEEVDVVVIAGMGGNLIRDIIEERLDIFKKLKYAVLQPVQNPEILREYLIKRGFNIIEEQLCIDESKYYEIIKVCYDSKIEDKDDVYYEIGDKLIDMKHPLLKEYINYKIRKYDKIYKNISEESLNALSRKNELSIKIRKLKELLSCL | not soluble |
| MGSDKIHHHHHHMRVLVVGLGNMGQSHALAHHAADGVEIIGLVNRSSRDLPGALQGYPMIQTVEEGLALSPDLVVIATYSDTHADLACQAMRAGAHVFVEKPLATTVADAKGVVETARETGQKLVVGYILRHHPSWMRLIEEARALGGPYVFRMNLNQQSTGAEWATHKALMQTTSPIVDCGVHYVDVWCQITDARPVAVHGMGLRLSDEIAPEMYNYGQFQVFFDDGSVGWYEAGWGPMMSEVAFFVKDVISPNGAVSITEADKAGSADIDGHTKVGGVLVHRPGDDQLIEFEGEPGHQELCDAEQAFMRRAIAEDLDLSRHMEDAVRSLAICLAADESIRTGQRVTL | not soluble |
| MQKINDAGELAKHSVVVTTFDTIKTLMNFQTLQKISFERIIIYDAYPIDNTDTQRYKALRQLDATYRWVLTGNLLQQNLANFLKLGEYGDDQLWDTQICPILEGKQCDEKTELSKKIENLLKSVELKFPLENYREMEVGADDSQ | not soluble |
| MGSSHHHHHHGGTGENLYFQGGSGLLSHHCIYPSRMFGDGRLLMDTSISGGMLLGLDVCGGVKLWPQHQYTAVELILPSALSGVREVLVPPVSMSGAGEESQRASEAGSGKQRASSPPLPRNLPGSRVIRIIHEASEIPAEVAGSYNSALNGSRRKGSKAMRSLDRGPAGTSGGRASSSIVPRYFDEFHRLRSQRVMEGSLKTVLEATNASIIGEARLRRQRRRYAVKHNKTIFIKGKTAAGDEQ | not soluble |
| WLSPEIEALSHGTRLNNIDMYPALQRLLPWPEATNFEEFAPSHLSVPSGNQHRLDYSSGRPVIRVKLQECFGLEESPQLCGIPVQFHLLSPAGRPLAVTDDLRSFWSGPYSQVRAEMRGRYPKHPWPEDPWTAPATARTKNRM | not soluble |
| PDLIYYRNADGVFSGCNRAMEELTGKKEHQLVGLSPWDVYSKEIAQPIVDTDQKVFSDNQAITYEQWLEYPDGRKHYFELRKVPFYSKD | not soluble |
| MNVPSTSSTRGYAKYQIRSSGMPRVLANESDVFTLDDVDVDEETDELKPNRITITKEEEKSRLVECNLDSDEEEDKTPPKEDDKGQNIRLSSKNSSTVESKERCRLRDSFDLDNDDSLSDDLDLLPPIPGAPNANSSLCSKLHRFNCCNPRIPSKCTIM | soluble |
| MTGKILVIGSTGTIGTPLVKALVARGESVKAASRSGKPTNGAEGVRFDYTDHATFADAFDGVDRLFLMLAGGRLDTIDALTPVVEEAARRKVKIVFLSVLGVDADDSIPYRQIELKIIASGTPYVILRPNWFADNFHSYWKAGIEHGQIAVPGGEGKSSFIDVRDIADSAAAALTSDAFNGKAFNLTGPQAFGYAEAAALISQAIGKPVSYSAVSDDVFIGILTGAGVPQDYASFLASIFYPVREGWTAVVTGDAETLTGHAPRSLETYIADNLDRLKG | not soluble |
| MGEGIGRVFFLKDEVGFQPLSNHQGLVVKLLESWREGDEPLALSPKTKERLLLAARYHDDGKRFTFHIVPDGKGGLTYSFRGHRFRVAQAVQDPYAQALIRGHHDYSTREVVNLAADFLEEGLGHRFPEDLFLLMMADQLEAELAVRLWQRRAGEVRPFVEFDLLPDGEGGFLLDPWPFRVDEVALDFLVYFHPYRGEEAKVVEGWGRALVGALEEGKVPEAFREEKRRVRLRPWAAGARKADDPEAFYDRFGLKPTPFQREVFKVAEGDPAHLLLAPTGTGKTEAAAFPALARGERLVFVLPTRSLVDDLEGRFRCYLKILAQEEGRPKALVVDTGHRQARFRFSPDGQEEATKERHLYHADVILTTLDKLLYRYFGYAEGVKSYTFPRRIHDRRTLFVFDEVHLYEATAWVNFRHLIASLYKAGVRFLVMSATMPGTYREELLLEGTLEHPAAKRPSRVLRYMPQGNPMEIIQSHRGKRVLVVLEEVKEAAELYKRLKGEGVFLYHGRLAEGQRRRVFGEVKRRDKAQEPYLLITTPAIEVGVDLDAEVLVTTLCPPENLLQRLGRVNRRGGGQGEAYVVGETYPDYLGSLPEGYLELLKALDGQDLAQGGEERLRQAIRYPKYLDPRAETFFEALQDYVYGLDLTQEPLHRKGFVATRGWTPSVRLRQGEDEVEVPIDRLVGRKEELTPVRVVERLLTDGETGNRRREEVPLRSGELYGRELVLNYPYPYDPELGFVELPKVFQRLRHPDPQRVQLLYAPEKDAGEAPEGVMDTDQVTGGGRRVLWYLGESAWAEPAKSGEVAEETEEEEEEGD | soluble |
| MGCCQSKKARNNQRNNQRSDQMNRQHTQPSPNASTEQMAYPRQQPQGIPQGPPPAYAPPAAPKAPEKVVEPKNRRVTIAEPPERVAEPSPTPEDPELFTCIDQTEKEVEKEVEKRKSAPRAPVPAPTPAPQAAPQATPAAPAQAYPQQQQAAPVVYGSQPMVMGAAPVAPVVMAPPPVIMSPYPYYGGGVMFDPYYNGFYGGYGYGGFDFGYGGYGGYGCGFY | not soluble |
| GATDSATAAPAAAATTQVQKEAADVLQVAVQGANAMRDIQFARLALFHGQPDSAKKLTDDAAALLAADDASWAKFVKTDAKAKMIADRYVIINASIALSEDYVATPEKESAIQSANEKLAKGDQKGAIDTLRLAGIGVIENQYLMPLNQTRKAVAQSQELLKAGKYYEANLVLKGAEEGIVVDSEMLVAGN | soluble |
| MDEVANALAVSQTMMEKMQKLEISKNYDVEKFETLLRLPARDVNTFMEKEAKKTDDEKMTDMDRRIKRIREDKTDRAARTLQKYFRKIRVKGEQNHINKRISKIPAKRRVVLLEQIRQKMGEQQPIRRFGGYQVIRAVELHKGKQKLQKDWLAKLSIDVNFHDKNLSRPNSPTHFIANSIPTLIRKKAEMKHAEKMQEIDSSIMDIYCGFQKDNLH | not soluble |
| MGSDKIHHHHHHMTVCVAVKVQDCIVFAADSTTSLQAVGANGEHVTMNTYDHANKLFNLRKGCPVAAMTAGIGNFGGSSISTVSKDFRSLIDRRAEGYALNWENYTIEEIVGLARKYFFEERFSSLSEKPQGSFQYWVGGYSSGEQMGEVWQFQIHNGECLEPQCSISRNVASGLAWGGAPEAINRLILGYGQRIGDALVEGGLDASLVPQAIDGIARYTQCSLVHAAMPTGDAIDLAKFLAETTKQFVRFMPGSNSVGGDLDIATITKHENFKWIARKHFYNTRINPLETNHA | not soluble |
